From US20230365705A1 (DYNAMICURE BIOTECHNOLOGY, published 2023)

T1: Human CD93 on cells (human CD93 expressing CHO cells; HUVEC, U937 and KG1a cells) (human, UniProt Q9NPY3 22-652)
T1 construct: whole, on cells; also called hCD93 expressing CHO cells; hCD93 CHO cells
T1 sequence (looked up): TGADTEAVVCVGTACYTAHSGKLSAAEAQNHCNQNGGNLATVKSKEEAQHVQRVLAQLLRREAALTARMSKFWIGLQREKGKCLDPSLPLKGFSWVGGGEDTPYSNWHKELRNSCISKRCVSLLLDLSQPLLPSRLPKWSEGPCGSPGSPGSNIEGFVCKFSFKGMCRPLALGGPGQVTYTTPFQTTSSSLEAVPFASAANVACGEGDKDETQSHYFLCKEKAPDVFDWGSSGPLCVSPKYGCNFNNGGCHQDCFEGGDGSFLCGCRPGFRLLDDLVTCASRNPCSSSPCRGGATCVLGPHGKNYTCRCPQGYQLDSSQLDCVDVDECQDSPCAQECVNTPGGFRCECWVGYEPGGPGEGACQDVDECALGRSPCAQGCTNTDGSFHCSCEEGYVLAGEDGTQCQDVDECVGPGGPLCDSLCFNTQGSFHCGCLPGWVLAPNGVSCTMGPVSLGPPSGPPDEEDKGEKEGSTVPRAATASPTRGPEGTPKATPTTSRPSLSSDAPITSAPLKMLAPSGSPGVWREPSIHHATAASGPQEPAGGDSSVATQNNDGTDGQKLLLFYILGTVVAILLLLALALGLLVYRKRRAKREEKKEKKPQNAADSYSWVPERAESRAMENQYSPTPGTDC


Key:
[1] = molecular target: T1, Human CD93 on cells (human CD93 …); experiment: flow cytometry titration on U937 cells -human serum; column head printed kd, unit from the axis log (concentration (M))
Description: Cells were quenched with media then counted. Cells were resuspended in FACS buffer (ice cold PBS with 0.5% BSA) and put on ice ˜20 min. 5×10⁴ cells were seeded per well in 100 μL and incubated with serial diluted anti-CD93 antibodies in 100 μL on ice for 2 hours. Samples were then washed by spinning samples at 1200 rpm for 5 minutes. Media was discarded and cells were resuspended in 200 μL ice cold FACS buffer. Cells were washed again and resuspended in 100 μL of secondary Antibody, AlexaFluor647 conjugated anti-human IgG or anti-mouse IgG antibodies (Jackson ImmunoResearch), diluted 1:500 in FACS buffer. Plates were covered with foil to protect from light and were incubated for 1 hour on ice. Samples were then washed again and resuspended in 200 μL ice cold FACS buffer. Cells were washed again and resuspended in 200 μL fixing solution (PBS with 1% formaldehyde). Samples were stored at 4° C. covered in foil, ands were subsequently acquired in NovoCyte Flow Cytometer and analyzed by NovoExpress software.

[2] = molecular target: T1, Human CD93 on cells (human CD93 …); experiment: flow cytometry titration on HUVEC cells +human serum; column head printed kd, unit from the axis log (concentration (M))
Description: (§1) Recombinant parental anti-CD93 antibodies were evaluated for their ability to bind to HUVEC cells in the presence or absence of human serum. […] Antibodies were purified using Protein G Sepharose. The resulting antibodies were tested for its binding capacity to a variety of cells that express CD93. […] Cells were quenched with media then counted. Cells were resuspended in FACS buffer (ice cold PBS with 0.5% BSA) and human serum was added to 20% (10% final volume) and put on ice for approximately 20 minutes. 5×10⁴ cells were seeded per well in 100 μL media and incubated with serial diluted anti-CD93 antibodies in 100 μL on ice for 2 hours. Cells were then washed by spinning cells at 1200 rpm for 5 min. Media was discarded and cells were resuspended in 200 μL ice cold FACS buffer. The wash step was repeated and cells were resuspended in 100 μL of secondary antibody, AlexaFluor647 conjugated anti-human IgG or anti-mouse IgG antibodies (Jackson ImmunoResearch), diluted 1:500 in FACS buffer. Plates were blocked from light and incubated 1 hour at 4° C. Cells were then washed again then were resuspended in 200 μL ice cold FACS buffer. Cells were washed again and resuspended in 200 μL fixing solution (PBS with 1% formaldehyde). Samples were stored at 4° C. covered in foil, then were acquired in NovoCyte Flow Cytometer and analyzed by NovoExpress software.

[3] = molecular target: T1, Human CD93 on cells (human CD93 …); experiment: flow cytometry titration on human CD93 CHO cells; column head printed kd, unit from the axis log (concentration (M))
Description: Cells were quenched with media then counted. Cells were resuspended in FACS buffer (ice cold PBS with 0.5% BSA) and human serum was added to 20% (10% final volume) and put on ice for approximately 20 minutes. 5×10⁴ cells were seeded per well in 100 μL and incubated with serial diluted anti-CD93 antibodies in 100 μL on ice for 2 hours. Samples were then washed by spinning samples at 1200 rpm for 5 minutes. Media was discarded and cells were resuspended in 200 μL ice cold FACS buffer. Cells were washed again and resuspended in 100 μL of secondary Antibody, AlexaFluor647 conjugated anti-human IgG or anti-mouse IgG antibodies (Jackson ImmunoResearch), diluted 1:500 in FACS buffer. Plates were covered with foil to protect from like and incubated for 1 hour on ice. Cells were washed again resuspended in 200 μL ice cold FACS buffer. Cells were washed again and were resuspended in 200 μL fixing solution (PBS with 1% formaldehyde). Samples were stored at 4° C. covered in foil, then were acquired in NovoCyte Flow Cytometer and analyzed by NovoExpress software.

[4] = molecular target: T1, Human CD93 on cells (human CD93 …); experiment: flow cytometry titration on HUVEC cells -human serum; column head printed kd, unit from the axis log (concentration (M))
Description: as §1

[5] = molecular target: T1, Human CD93 on cells (human CD93 …); experiment: flow cytometry, CHO cells overexpressing human CD93, antibody 0.01ug, mIgG1 as control, APC-A

Kd [1] | Kd [2] | Kd [3] | Kd [4] | M2 gate, % of cells [5] | Binder
0.0234 nM | 3.43 nM | 0.0757 nM | 0.741 nM |  | Recombinant parental 7F3 with a human CH1 domain and mouse IgG1 CH2 and CH3 Fc domains (antibody, V domains shown) VH: QVQLQQSGADLVRPGASVKLSCKASGYTFTDYEMHWVKQTPVYGLEWIGGIDPETGDTAYNQNFKGKATLTADKSSSAAYMELRSLTSEDSAVYYCTNYGNLYYYAMDYWGQGTSVTVSS VL: ENVLTQSPAIMSASPGEKVTMTCRASSSVSSSYLHWYQQKSGASPKLWIYSTSNLAFGVPARFSGSGSGTSYSLTISSVEAEDAATYYCQQYSGYPLTFGSGTKLEIK
0.0629 nM | 0.314 nM | 0.14 nM | 0.174 nM |  | Recombinant parental 16E4 with a human CH1 domain and mouse IgG1 CH2 and CH3 Fc domains (antibody, V domains shown) VH: QVQLQQPGAELVKPGASVKLSCKASGYTFTSYWMHWVKQRPGQGLEWIGEIDPSASYTYYNQKFKGKATLTVDKSSSTAYMQLSSLTSEDSAVYYCARSVYYGNKYFDVWGAGTTVTVSS VL: not shown
0.0666 nM | 0.196 nM | 0.163 nM | 0.111 nM | 98.4% | Recombinant parental 17B10 with a human CH1 domain and mouse IgG1 CH2 and CH3 Fc domains (antibody, V domains shown) VH: QVQLQQSGPELVKPGASVKISCKASGYAFSSYWLNWVKQRPGKGLEWFGRIYPGDGDTDYNGKFKGKATLTADKSSSTAYMQLRSLTSEDSAVYFCVRGDGYWAMDYWGQGTSVTVSS VL: DIVMTQAAFSNPVTLGTSASISCRFSKSLLHSNGITYLYWYLQKPGQSPQLLIYQMSNLASGVPDRFSSSGSGTDFTLRISRVEAEDVGVYYCAQNLELPWTFGGGTKLEIK
